The experiment addresses SARS-CoV-2 recombinant spike HexaPro protein (SARS-CoV-2) (UniProt P0DTC2). Kind of experiment: SPR. The settings on record: Fc fusion.

Usually Kd stands for the free concentration of one partner at which half of the binding sites on the other are occupied at equilibrium, for simple one-to-one binding.

As to FcACE2 dimer construct (Fc-linker-ACE2), the Kd is 0.43 nM.

Values taken from patent publication US20250367270A1.
